Reference: the RNAGym collection of RNA variant scans (doi:10.1073/pnas.2313332121)

B1: TPR t1 (parent)
chain: GACCAAUCUGCCCUCAGAGCUCGAGAACAUCUUCGGAUGCAGAGGAGGCAGGCUUCGGUGGCGCGAUAGCGCCAACGUCCUCAACCUCCAAUGCAUCCCACCACAUGAUGAUGCCUGAAGAGCCUUGGUUUUUUG

Variants of: B1
Experiment: polymerase ribozyme fitness, log enrichment relative to wild type (log ratio); higher = more active; in vitro selection for triplet polymerase activity
How it was run: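 Libraries of mutants in each subunit of a heterodimeric triplet polymerase ribozyme were generated by PCR and transcribed. In triplicate, each went through one in vitro selection round: annealing with biotinylated primer, partner subunit and triplets; frozen incubation at −7 °C; gel excision of extended constructs; streptavidin-bead capture; RT-PCR. Fitness, taken from Illumina sequencing of input and output libraries, is the logarithm of a genotype's enrichment over wild-type enrichment, averaged across replicates with inverse-variance weights. The logarithm is base 2, and genotypes needed ≥10 input reads and ≥1 read per output to be kept.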

Variant | polymerase ribozyme fitness (log ratio)
GACCAAUCUGCCCUCAGAGCUCGAGAACAUCUUCGGAUGCAGAGGAGGCUGGCUUCGGUGGAGCGAUAGCGCCAACGUCCUAAACCUCCAAUGCAUCCCACCACAUGAUGAUGCCUGAAGAGCCUUGGUUUUUUG | -1.33
GACCAAUCUGCCCUCAGAGCUCGAGAACAUCUUCGGAUGCAGAGGAGGCUGGCUUCGGUGGCGCGAUAGCGUCAACGUCCUCAACCUCCAAUGCAACCCACCACAUGAUGAAGCCUGAAGAGCCUUGGUUUUUUG | -1.9
GACCAAUCUGCCCUCAGAGCUCGAGAACAUCUUCGGAUGCAGAGGAGGCUGGCUUCGGUGGCGCGAUAGCGCCAACGUCCUCUACCUCCAAUGCAUCCCACCACAUGAUGAUGCCUGAAGAGCCUUGGUUUUAUG | -0.994
GACCAAUCUGCCCUCAGAGCUCGAGAACAUCUUCGGAUGCAGAGGAGGCUGGCUUCGGUGGCGUGAUAGCGCCAACGUCCUCAACCUCCAAUGCAUCCCACCACAUGAUGGUGCCUGAAGAGCCAUGGUUUUUUG | -1.48
GACCAAUCUGCCCUCAGAGCUCGAGAACAUCUUCGGAUGCAGAGGAGGCUGGCUUCGGUGGCGCGAUAGCGCCAACGUCCUCCACCUCGAAUGCAUCCCACCACAUGAUGAUGCCUGAAGAGCCUUGGUUUUUUG | -5.74
GACCAAUCUGCCCUCAGAGCUCGAGAACAUCUUCGGAUGCAGAGGAGGCUGGCUUCGGUGGCGCGAUAGCGCCAACGUCCUCAACCUCCAAUGCAUCCCAUCACUUGAUGAUGCCUGAAGUGCCUUGGUCUUUUG | -2.62
GACCAAUCUGCCCUCAGAGCUCGAGAACAUCUUCGGAUGCAGAGGAGGCUGGCUUCGGUGGCGCGAUAGCGCCAACGUCCUCAACCUUCAAUGCAUCCCACCACAUGAUGAUGCCUGUAGAGCCUUGGUUUUUUG | -0.957
GACCAAUCUGCCCUCAGAGCUCGAGAACAUCUUCGGAUGCAGAGGAGGCUGGCUUCGGUGGCGCGAUAGCGCCAACGUCCUCGACCUCCAAUGCAUCCCACCACAUGAUGAUGCCUGAAGAGCCUUGGUUUUUUG | -0.122
GACCAAUCUGCCCUCAGAGCUCGAGAACAUCUUCGGAUGCAGAGGAGGCUGGCUUCGGUGGGGCGAUAGCGCCAACGUCCUCAACCUCCAAUGCAUCCCACCACAUGAUGAGGCCUGAAGAGCCUUGGUUUUUUG | -5.81
GACCAAUCUGCCCUCAGAGCUCGAGAACAUCUUCGGAUGCAGAGGAGGCUGGCUUCGGUGGGGCGAUAGCGCCAACGUCCUCAACGUCCAAUGCAUCCCACCACUUGUUGAUGCCUGAAGAGCGUUGGUUUUUUG | -7.62
GACCAAUCUGCCCUCAGAGCUCGAGAACAUCUUCGGAUGCAGAGGAGGCGGGCUUCGGUGGCGCGAUAGCGCCAACGUCCUCAACCUCCAAUGCAUCCCACCACAUGAUGAUGCCUGAAGAGCCUUGCUUUUUUG | -1.8
GACCAAUCUGCCCUCAGAGCUCGAGAACAUCUUCGGAUGCAGAGGAGGCUGGCUUCGGUGGCGUGAUAGCGCCAACGUCCUCAACCUCCAAUGCAUCCCACCACCUGAUGAUGCCUGUAGAGCCUUGGUUUUUUG | -4.51
GACCAAUCUGCCCUCAGAGCUCGAGAACAUCUUCGGAUGCAGAGGAGGCUGGCUUCGGUGGCGCGAUAGCGCCAACGUCCUCAACCUCCAAUGCAUCUCACCACAUAAUGAUGCAUGAAGAGCCUUGGUUUUUUG | -5.98
GACCAAUCUGCCCUCAGAGCUCGAGAACAUCUUCGGAUGCAGAGGAGGCUGGCUUCGGUGGUGCGAUAGCGCCAACGUCCUCAACCUCCAAUGCAUCCCACCACAAGAUGAUGCCUGAAGAGCCUUGGUUUUUUG | -1.01
GACCAAUCUGCCCUCAGAGCUCGAGAACAUCUUCGGAUGCAGAGGAGGCUGGCUUUGGUGGCGCGAUAGCGCGAACGUCCUCAACCUUCAAUGCAUCCCACCACAUGAUGAUGCCUGAAGAGCCUUGGUUUUUUG | -3.49
GACCAAUCUGCCCUCAGAGCUCGAGAACAUCUUCGGAUGCAGAGGAGGCUGGCUUCGGUGGUGCGAUAGCGCCAACGUCCUCAACCUCCAAUGCAUCCCACCACAUGAAGCUGCCUGAAUGGCCUUGGUUUUUUG | -7.17
GACCAAUCUGCCCUCAGAGCUCGAGAACAUCUUCGGAUGCAGAGGAGGCUGGCUUCGGUGGCGCGAUAGCGCCAACGUCCUUAACCUCCAAUGCAUCCCACCACAUGAUGAUGCCUGAAGAGCCUUGGUUUUUUG | -1.15
GACCAAUCUGCCCUCAGAGCUCGAGAACAUCUUCGGAUGCAGAGGAGGCGGGCUUCGGUGGCGCGAUAGCGCCAACGCCCUCAACCUCCAAUGCAUCCCACCACAUGAUGAUGCCUGAAGAGCCUUGGUUUUUUG | 0.0914
GACCAAUCUGCCCUCAGAGCUCGAGAACAUCUUCGGAUGCAGAGGAGGCGGGCUGCGGUGGCGCGAUAGCGCCAACGUCCUCAACCUCCAAUGCAUCCCACCACAUGAUCAUGCCUGAAGAGCCUUGGUUUUUUG | -4.52
GACCAAUCUGCCCUCAGAGCUCGAGAACAUCUUCGGAUGCAGAGGAGGCUGGCUUAGGUGGCGCGUUAUCGCCAACGUCGUCAACCUCCAAUGCAUCCCACCAGAUGAUGAUGCGUGAAGAGUCUUGGUCUUUUG | -8.27
GACCAAUCUGCCCUCAGAGCUCGAGAACAUCUUCGGAUGCAGAGGAGGCUGGCUUUGGUGGCGCGAUAGCCCCAACGUCCUCAACCUCCAAUGCAUCCCACCACAUGAUGAUGCCUGAAGAGACUUGGUUUUUUG | -6.51
